Results: the supplement of paper PMC12042874
± gives the uncertainty stated by the source.

Experiment: amyloid nucleation score (Sup35N fusion, yeast selection) (log enrichment); library NNK3; higher = more nucleation; inactive = no reads after selection
Summary of the method: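 Peptides of 20 random codons, each fused to Sup35N, were expressed in psi-negative yeast. Cells were induced with 100 μM copper sulfate for 24 hours and grown 7 days at 30°C on medium lacking adenine and uracil, and plasmid inserts before and after selection were Illumina-sequenced. Nucleation scores are DiMSum log enrichments of output over input reads, centred on the mode score of non-aggregating sequences, and sequences under 100 input reads were excluded.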

Substance | amyloid nucleation score
TYPTYRVWVEEQCRLYDTNR | inactive
VYLWKYRPQYPRVA | inactive
MRVYFMWATTWLA | inactive
LSYSSRTRCMLLSLYWCSIR | inactive
WTVGCREWLSLCCSAKDTDA | inactive
MLSFLYRELN | inactive
YSVPRKSIICIKFDGFWRCV | 1.96 ± 0.096
KNWYKVMSRYYKC | 0.338 ± 0.38
DHHQIFYVWSLPMA | inactive
ERFNPDEVCE | inactive
VQHFRHQSASELV | inactive
SKFLVNGAGLDELDVLVCLL | inactive
NGDMKARTFHTRDFKFGVPR | inactive
SKGLCPVWIVLYKACHSMIF | inactive
FPHGVHPYS | inactive
NQYLLCMLMWNARSGSRSMI | inactive
RDSVNFTSNCCSVGFNTFNS | 2.67 ± 0.053
IYRGHVRQKELFCHRREIQW | inactive
RHLPQESKRSSVAAISLM | inactive
SADLFVSEYKGIRMTIGNVF | inactive
WSYHATTPHLRRYRLERSSN | inactive
WLCCNKTETPQSTRRWQEDD | inactive
EIGYYFNFKRLGAS | inactive

Substance | amyloid nucleation score
LYLGLFVSWCSLKSTAWFGK | inactive
ICYRRPTSSMP | inactive
MSSPAPFWSVNSVLAIKNLF | inactive
DMCIHWDEGNAWWYKSMASV | inactive
NTWPTPSLWLVLNKTLRKTS | inactive
YDTAVYIIELGCNDNKSWVR | inactive
VQISIDKAWMRTSTCSIGSK | inactive
CLSGRCRASMLPLGRVSKCD | inactive
CYSPQFVCYATGHVKSDLML | inactive
HIILFSIKSSKD | 1.37 ± 0.12
MYDGKNWQLAQ | inactive
LQVHILFMAIKYFSMAVV | inactive
YVNTDVIVHENVFLLNSHNS | 1.69 ± 0.089
LLVAYDQIFNF | inactive
HSRTGLGLHKLRMAVGFCIN | inactive
VYRWVC | inactive
IDQRWYCALQCHCREEINCR | inactive
AYMYSTILGSMPS | 1.44 ± 0.11
PAGTICGCRHGRLWNGPSRW | inactive
ELRQMTRVSVLASYTWSTTL | -0.014 ± 0.46
PMHAIIKLYM | inactive
GFNYVFDSGEFGDRSFWHIY | inactive
MDLMPSYSTWKLFFKAI | inactive

Substance | amyloid nucleation score
YWQWSNV | inactive
RNSSNGSVHKQVFAVELKVP | inactive
SVLICINCNVEHV | 2.44 ± 0.083
VWKMRDTKHMGLLWLLWFIE | inactive
MYTLCQMLNVRTRDMTCVTR | inactive
CFLAENILFSN | 0.024 ± 0.64
DFGCKSINCFLNATQ | inactive
YQVHWFSNYTTAWMNYVSTV | inactive
NWTQSIFVGGQRDRLVISRT | inactive
SCYIEWMVFGSYPL | inactive
QSRSRSNARARWVVSKLSCS | 0.21 ± 0.53
IRCRQNPGSHVIRYFCCRRS | inactive
YSLVYAYMESTMYYCLGLRM | inactive
VVILHCKTYAMASRWYGYRG | -0.003 ± 0.81
RVTDLRYIKMFVCIILCTGL | inactive
FSSLLTSDWRASCLGPYVNM | inactive
RHLMYPNRNMMVWSSFSDLG | inactive
RFLYRYG | inactive
MNRMCVLLVNFCVDTD | 1.9 ± 0.06
AALSSTW | inactive
CTLVLLKQ | inactive
WSKHVCLFENSKSPHFSEDS | inactive
LSTNTKSKTPYNVRMSLTGG | 0.49 ± 0.34

Substance | amyloid nucleation score
DDLYMFMLIVRMLISQIKRV | inactive
MGNFSFE | inactive
TRISMSENKVVKREVVATRR | inactive
IVQAFVSVLSY | inactive
GGKAISNFEFLLILGPY | inactive
ISVAWWGCSTAYRRCKD | 1.14 ± 0.12
SRGCRTTYRQEWECIQCLKW | inactive
FNPKSWKVTKLYFKMYNRLD | inactive
RIGQMFLILVFKGLL | inactive
WNKGPQTQ | inactive
ESRVPRSIKDSL | inactive
MTGLLMSKTARFCRRNR | inactive
PAPHRIKRIL | inactive
SEIVSKVITLQGNICFFGMG | inactive
TPCYRFNSRYRMTFM | inactive
VGMRNTSLRCLVLIG | inactive
FNVANIRSRFFHFTYSRKVS | inactive
LFISFIVLRKALFTYTCLCF | inactive
TLVVMEIIQLLSFSHGPFI | inactive
HKWLV | inactive
ITIMSDQETSHVWLVDRTLP | 0.298 ± 0.17
ELRSIR | inactive
YYRSCWLSLCWCYHYCYGVD | 0.346 ± 0.61

Substance | amyloid nucleation score
NCIECRTDTYW | inactive
YFVFKIRKDVELLVYI | inactive
HSLHMGRKAMQYEYTQPAGI | inactive
SFIIVILYGDHALYFTYEAV | inactive
NSNLDSSVYSVILYGLGVWM | 1.18 ± 0.094
RLWLRKT | inactive
SGFDGTPFVLLSSDMFSNIG | inactive
IFLIPYA | inactive
LFVMVQLCQL | 0.797 ± 0.13
GHTRDFKGSFDFPLNFY | inactive
YFFFLRICWMDSSLVFGLLS | inactive
SFLSWVKYWERSCPDHSIWF | inactive
EGILPYLRYLFRNLSVGCCW | inactive
IRHVHLSRYSTRTDGNNQLD | inactive
HSCMCKSLNASLMVDVRLPR | inactive
FNGSTCCVSSV | inactive
FYHVTGLFT | inactive
CGIMPLSHGIDLMFVRVTPG | inactive
LSGLRNAVERVVAGFIHGRV | inactive
FVHHYIWRVNL | 0.712 ± 0.36
MTCWTTYNGTDIEGKGGINN | inactive
RTISGYSPSIVGQRDSRGFL | inactive
LTFSSSHCVIMWQFLCKLVG | inactive

Substance | amyloid nucleation score
SVSLLLRFVILLCTFVQYGW | inactive
ATFRMGRKVPWS | 1.01 ± 0.23
IQLMLFIDCLSENCYVWLRY | inactive
QPMKLRT | inactive
YLTCVVKRTVH | inactive
RISAFWLYTACQFGSDLDTC | inactive
CLCKLEWHNTYMGYKR | 2.63 ± 0.08
IALGWFVIRFDEVVKLFKMF | inactive
PQRWLSPSYSRIVRM | 1.39 ± 0.14
ALFVGFRF | 1.55 ± 0.12
VGWIHYCQGTYKRMFGITGR | inactive
YDMVLRSHATVAYSHYGFDM | inactive
PFENHSYVCSGSRYNGTLWE | inactive
WKEVGHGRSASPSALK | inactive
CWFFV | 0.242 ± 0.39
LFDFYRNSVTD | inactive
IMYTRAYLFYTRDHCLFIRV | inactive
DTGLAESQGMN | inactive
RMENWLRCL | inactive
HIKVVRPRSRCDLLGSPISQ | inactive
NTVLATYRTNAVFGKTTHYN | inactive
LIYILWH | inactive
NTFTPVFLTSKYSMRYGLIM | inactive

Substance | amyloid nucleation score
QVSLSRRISFYGHLNSDNES | inactive
FSYVCFGYV | 0.337 ± 0.14
DFCMVVHCIKFMGLCRGGDV | 1.02 ± 0.17
IFCVGVSLRQ | 0.347 ± 0.3
ISTSLMDRRTKMLRQM | inactive
PDRCFD | inactive
FKRYY | inactive
MEVDQTYVRIWC | 1.31 ± 0.14
GSSTYLTDLPTSPPSVFSSL | inactive
DFNLFKAQIYLWNSFDVSEF | 0.99 ± 0.14
LLLRLLAWYMMVS | inactive
LSCFNSVAHCDVNSGMFQIV | inactive
SPYTVQ | inactive
GMTVLLSMVI | inactive
RVMCTYTRYLWFKFISLMMV | inactive
PQADLVRFAMCRRAMNLVPW | inactive
RFNAFSPSPRWPRHFKTMYY | inactive
FNWFLRWFNPVCKDALWVEC | inactive
HLRKVCGGFM | inactive
SDTLYFVCSVTWQRFYKMID | inactive
EWLGNCRNDCVMWLCYNMAS | inactive
FDDYLKSYFKQYSNDHVG | inactive
